Drawing on paper PMC7279355, “Preparation of Biphenyl-Conjugated Bromotyrosine for Inhibition of PD-1/PD-L1 Immune Checkpoint Interactions” (International Journal of Molecular Sciences, 2020), this text covers IC50 and Kd for three substances.

In test [1] the target is PD-L1, histidine (His)-tagged (UniProt Q9NZQ7). The experiment in a line: AlphaScreen or HTRF; AlphaLISA kit AL356 HV/C/F (PerkinElmer), competition: biotin-conjugated PD-1 on streptavidin-coated donor beads, His-tagged PD-L1 on anti-His acceptor beads; 2 uL each of inhibitor dilution, PD-L1 (25 nM), PD-1 (25 nM) and the two beads in 10 uL; 25 °C, 90 min; IC50 from sigmoidal fit.
Sequence of PD-L1, histidine (His)-tagged (Q9NZQ7 19-238): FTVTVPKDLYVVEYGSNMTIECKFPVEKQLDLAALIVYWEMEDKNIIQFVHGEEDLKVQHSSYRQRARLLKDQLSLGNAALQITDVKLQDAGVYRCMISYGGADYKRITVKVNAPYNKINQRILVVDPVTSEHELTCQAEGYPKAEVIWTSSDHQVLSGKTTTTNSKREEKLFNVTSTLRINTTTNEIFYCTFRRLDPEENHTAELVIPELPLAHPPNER

The target in another test is PD-L1 (Homo sapiens) (UniProt Q9NZQ7). The note with it: cited from earlier work.
Sequence of PD-L1 (Homo sapiens) (Q9NZQ7 19-238): as above

Sequence of PD-1 (Q15116 25-170): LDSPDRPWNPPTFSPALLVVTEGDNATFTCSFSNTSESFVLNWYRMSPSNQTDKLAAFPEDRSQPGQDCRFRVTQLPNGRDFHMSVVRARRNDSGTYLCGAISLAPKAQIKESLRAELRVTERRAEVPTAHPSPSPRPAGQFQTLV

For orientation: IC50 means the midpoint of a concentration-inhibition curve. In turn, FWRXNNI (peptide) came in with an IC50 in test [1] of 312 µM.
The Kd is the concentration at which binding is half-saturated. As to PD-1 (from UniProt Q15116), the Kd in the test with PD-L1 (Homo sapiens) is 6.4 µM.
As to CERXNKM (peptide), the IC50 in test [1] was 308 µM.
